{"source": "patent US20260022144A1", "about": "“ANALGESIC POLYPEPTIDE” (Shanghai Puyou Biomedical Co., Ltd., priority 2022, published 2026)", "molecules": {"B1": {"name": "SEQ ID NO: 29: exemplary polypeptide of the present disclosure; artificial polypeptide of formula (I) X-Y (protein)", "chain": "SEKKQPVDLGLLEEDDEFEEFPAEDWAGLDEDEDAHVWEDNWDDDNVEDDFSNQLRATVLLMILVAETPYGAYVLHQKGRMASAFLAA"}}, "key": {"[1]": {"tested_on": "VZV-induced pain model in rats", "assay": "VZV-induced pain model in rats, mechanical allodynia (von Frey) test", "format": "in vivo, rat", "conditions": "for 50% PWT (paw withdrawal threshold), analgetic effect: vs placebo", "description": "A summary of the method for inducing pain model in rats by means of subcutaneous VZV inoculation is provided hereinafter. Briefly, male Sprague Dawley (SD) rats were deeply anesthetized by intraperitoneal injection of a Zoletil R: 50 (30 mg/kg)/xylazine (6 mg/kg) anesthetic at an injection volume of 6 mL/kg, and then the virus inoculation was performed by subcutaneous injection at the footpad area. The infection dose was 22800 TCID50 per animal, and the infection volume was 150 μL for all rats.\nAdministration was performed on alternate days. Briefly, the test articles were administered by subcutaneous injection at the footpad area on Day 1 and Day 3, respectively. As for Group 2, the administration of SEQ ID NO: 29 was initiated from the first concentration. Namely, the first concentration (10 μg/mL) was administered on Day 1, and the second concentration (20 μg/mL) was administered on Day 3. Pain was measured once after each administration.\nMechanical allodynia tests (also called “von Frey tests”) for pain measurements were performed on the rats one hour after administration of the test articles on Day 1 and Day 3, respectively. In the behavioral test for rats, mechanical allodynia is expressed as the 50% paw withdrawal threshold (PWT), which is calculated according to the following formula:\n[formula] • wherein • Xf=final test fiber value used in the test • k=tabular value for the pattern of positive/negative responses (Chaplan et al. 1994, page 62) • δ=mean difference.\nBriefly, the rats were placed individually in plexiglass boxes with a grid at the bottom to ensure that the rats' feet could be tested. The rats were acclimated to the environment for 15 minutes prior to the test. After the acclimation was completed, pain (mechanical allodynia) was tested on the center of the sole of the left hind foot of the rats using test fibers. The test fibers included 8 test strengths: 3.61 (0.4 g), 3.84 (0.6 g), 4.08 (lg), 4.31 (2 g), 4.56 (4 g), 4.74 (6 g), 4.93 (8 g) and 5.18 (15 g). During the test, the test fibers were pressed vertically against the skin and forces were applied to bend the fibers for 6-8 seconds with a 5-second interval between each test. During the test, a pain response was recorded if the animals quickly withdrew their feet. The pain response was also recorded if the animal withdrew their feet as the test fibers left the animal's skin. The pain response was not recorded if the animal moved or ambulated, and the test should be repeated. The test was started with 4.31 (2 g). If the animal had pain response, the next test should be performed with a test fiber with a lower strength: if the animal has no pain response, the next test should be performed with a test fiber with a higher strength. The maximum strength of the tested fibers was 5.18 (15 g). The test results were recorded in a table, wherein the presence of pain response was recorded as “x”, and the absence of pain response was recorded as “0”.\nThe rats were randomly divided into 2 groups, with 8 rats in the placebo group (Group 1, administered with vehicle (normal saline)) and 8 rats in the treatment group (Group 2, administered with 30 mg SEQ ID NO: 29/kg). Briefly, the test articles were administered to the rats on a single day by intravenous injection.\nMechanical allodynia tests were performed on the rats 0.5 h after administration of the test articles according to the method as recited in Example 1, respectively.\nThe rats were randomly divided into 3 groups, with 8 rats in the placebo group (Group 1, administered with vehicle (normal saline)) and 16 rats in the treatment groups (Groups 2 and 3, 8 rats/group, administered with various polypeptides). Briefly, vehicle (normal saline) was administered to the rats from Group 1 and various polypeptides were administered to the rats from Group 2 (SEQ ID: 29, SEQ ID: 57 and SEQ ID: 49; 10 mg polypeptide/kg) and 3 (SEQ ID: 75 and SEQ ID: 28: 10 mg polypeptide/kg) on a single day by intravenous injection."}, "[2]": {"tested_on": "chemotherapy-induced peripheral neuropathy model induced by cisplatin in mice", "assay": "Cancer pain associated with CIPN model induced by cisplatin in mice, mechanical allodynia test", "format": "in vivo, mouse", "conditions": "C57BL/6 mice; for pain thresholds (50% PWT) of treatment groups vs model group, preventive effect: 15 mg/kg i.p. qd or bid in parallel with cisplatin", "description": "The experiments in this Example were divided into two parts. In the first part (Part I), the administration of SEQ ID NO: 29 was performed in parallel with modeling to explore the preventive effect of the polypeptide of the present disclosure on cancer pain associated with CIPN, in particular CIPN induced by cisplatin. In the second part (Part II), after elution of SEQ ID NO: 29 from the mice's bodies, mechanical allodynia tests were performed on the mice to confirm that the animals still had the cancer pain associated with CIPN, and to explore the therapeutic effect of the polypeptide of the present disclosure on cancer pain associated with CIPN after modeling.\n44 male C57BL/6 mice weighting 20 to 25 g were randomly divided into 4 groups, with 8 mice in the control group (Group 1, administered with vehicle (normal saline)), 12 mice in the model group (Group 2, administered with vehicle (normal saline) and cisplatin (2.3 mg/kg, i.p., qd)), 12 mice in the treatment group (qd) (Group 3, administered with SEQ ID NO: 29 (15 mg/kg, i.p., qd) and cisplatin (2.3 mg/kg, i.p., qd)) and 12 mice in the treatment group (bid) (Group 4, administered with SEQ ID NO: 29 (15 mg/kg, i.p., bid) and cisplatin (2.3 mg/kg, i.p., qd)).\nAdministration of SEQ ID NO: 29 was performed on scheduled dates. Briefly, SEQ ID NO: 29 was administered qd or bid by intraperitoneal injection on each day from Day 1 to Day 11, followed by a washing-out period ranging from Day 12 to Day 23. Afterwards, the administration of SEQ ID NO: 29 was resumed on the basis of the same regimen as above, lasting from Day 24 to Day 30.\nThe mice were subjected to mechanical allodynia tests 0 h before administration and 2 h after the first administration of the test articles (normal saline or SEQ ID NO: 29) according to the method as recited in Example 1 on Day 6, Day 10, Day 23 and Day 30, respectively."}}}
{"molecule": "B1", "values": [{"measurement": "analgetic effect (50% PWT)", "setting": "[1]; 10 mg polypeptide/kg i.v., single administration, tested 0.5 h after administration", "result": "apparent analgetic effect"}, {"measurement": "50% PWT (paw withdrawal threshold), analgetic effect", "setting": "[1]; 30 mg/kg i.v., single administration, tested 0.5 h after administration", "result": "significantly increased the 50% PWT values of the rats"}, {"measurement": "50% PWT (paw withdrawal threshold), analgetic effect", "setting": "[1]; s.c. (footpad) 10 then 20 μg/mL, 50 μL, tested 1 h after administration", "result": "increased the 50% PWT values of the rats in a dose-dependent manner"}, {"measurement": "pain thresholds (50% PWT) of treatment groups, therapeutic effect", "setting": "[2]; 15 mg/kg i.p. qd or bid Day 24 to Day 30, Day 30 vs Day 23", "result": "significantly increased"}, {"measurement": "pain thresholds (50% PWT) of treatment groups vs model group, preventive effect", "setting": "[2]; Day 6", "result": "significantly higher than those of the mice from the model group"}, {"measurement": "pain thresholds (50% PWT) of treatment groups vs model group, preventive effect", "setting": "[2]; Day 10", "result": "significantly higher than those of the mice from the model group"}, {"measurement": "levels of pain thresholds under different dosing frequency", "setting": "[2]; 15 mg/kg i.p., qd vs bid", "result": "dose-related"}]}
